Experimental data from patent publication US20160136234A1.

Assays:
Assay in all cases: cell-based or functional assay
Fyn (h) (human) = Fyn (h) (human) (UniProt P06241)
AMPKα2 (h) (human) = AMPKα2 (h) (human) (UniProt P54646)
VRK2 (h) (human) = VRK2 (h) (human) (UniProt Q86Y07)
SGK (h) (human) = SGK (h) (human) (UniProt O00141)
ZAP-70 (h) (human) = ZAP-70 (h) (human) (UniProt P43403)
EGFR (h) (human) = EGFR (h) (human) (UniProt P00533)
Rsk2 (h) (human) = Rsk2 (h) (human) (UniProt P51812)
Fer (h) (human) = Fer (h) (human) (UniProt P16591)
PKCζ (h) (human) = biological target: T1, PKCζ (h) (human) (UniProt Q05513)
T1 sequence (looked up): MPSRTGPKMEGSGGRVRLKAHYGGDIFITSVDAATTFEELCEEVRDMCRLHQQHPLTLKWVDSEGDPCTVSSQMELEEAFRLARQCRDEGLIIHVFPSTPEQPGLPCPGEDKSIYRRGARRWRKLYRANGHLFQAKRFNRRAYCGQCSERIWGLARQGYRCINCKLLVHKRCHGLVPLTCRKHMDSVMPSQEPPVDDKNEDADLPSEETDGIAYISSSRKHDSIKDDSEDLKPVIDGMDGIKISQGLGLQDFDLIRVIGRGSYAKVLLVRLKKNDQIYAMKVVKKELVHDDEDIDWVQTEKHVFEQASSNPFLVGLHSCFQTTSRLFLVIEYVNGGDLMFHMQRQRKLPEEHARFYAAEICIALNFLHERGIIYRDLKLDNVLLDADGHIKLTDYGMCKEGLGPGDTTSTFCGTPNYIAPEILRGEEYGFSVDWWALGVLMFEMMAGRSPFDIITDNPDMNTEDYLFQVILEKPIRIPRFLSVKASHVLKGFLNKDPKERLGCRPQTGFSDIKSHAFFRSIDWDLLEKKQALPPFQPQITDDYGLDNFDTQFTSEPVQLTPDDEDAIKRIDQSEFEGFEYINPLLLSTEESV

[1] = biological target: EGFR(T790M, L858R) (h) (human) (UniProt P00533)
FGFR1 (h) (human) = FGFR1 (h) (human) (UniProt P11362)
Sequence of FGFR1 (h) (human) (P11362 456-765 limits assumed): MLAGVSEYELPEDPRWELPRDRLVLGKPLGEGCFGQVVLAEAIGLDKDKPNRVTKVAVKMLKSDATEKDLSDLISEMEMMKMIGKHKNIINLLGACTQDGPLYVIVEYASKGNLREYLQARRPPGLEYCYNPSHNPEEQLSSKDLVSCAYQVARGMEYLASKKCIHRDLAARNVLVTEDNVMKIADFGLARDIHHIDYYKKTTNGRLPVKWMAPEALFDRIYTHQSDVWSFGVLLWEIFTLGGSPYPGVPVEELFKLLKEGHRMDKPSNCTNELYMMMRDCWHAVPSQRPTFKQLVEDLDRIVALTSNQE

EphA4 (h) (human) = EphA4 (h) (human) (UniProt P54764)
Sequence of EphA4 (h) (human) (P54764 570-986 limits assumed): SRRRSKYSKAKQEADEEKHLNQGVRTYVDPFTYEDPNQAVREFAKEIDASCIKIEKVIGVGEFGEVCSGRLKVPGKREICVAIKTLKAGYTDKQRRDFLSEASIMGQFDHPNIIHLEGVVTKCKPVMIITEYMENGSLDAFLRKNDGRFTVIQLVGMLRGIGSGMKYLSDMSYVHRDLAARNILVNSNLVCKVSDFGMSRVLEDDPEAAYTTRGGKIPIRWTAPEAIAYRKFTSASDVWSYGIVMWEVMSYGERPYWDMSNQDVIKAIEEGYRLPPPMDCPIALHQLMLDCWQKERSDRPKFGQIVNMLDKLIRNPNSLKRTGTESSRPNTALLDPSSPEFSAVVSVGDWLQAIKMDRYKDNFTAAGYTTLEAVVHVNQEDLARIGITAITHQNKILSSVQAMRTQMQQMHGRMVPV

IR (h) (human) = IR (h) (human) (UniProt P06213)
Sequence of IR (h) (human) (P06213 1005-1310 limits assumed): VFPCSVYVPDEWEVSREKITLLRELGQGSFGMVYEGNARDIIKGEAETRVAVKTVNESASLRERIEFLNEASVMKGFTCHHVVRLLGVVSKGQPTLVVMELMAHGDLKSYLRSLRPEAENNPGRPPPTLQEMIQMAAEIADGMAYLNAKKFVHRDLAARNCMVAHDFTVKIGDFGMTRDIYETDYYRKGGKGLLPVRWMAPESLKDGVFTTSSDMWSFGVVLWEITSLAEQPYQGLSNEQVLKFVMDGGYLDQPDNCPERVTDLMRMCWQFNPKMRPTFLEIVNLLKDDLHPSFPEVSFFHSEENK

Rse (h) (human) = biological target: T2, Rse (h) (human) (UniProt Q06418)
T2 sequence (looked up): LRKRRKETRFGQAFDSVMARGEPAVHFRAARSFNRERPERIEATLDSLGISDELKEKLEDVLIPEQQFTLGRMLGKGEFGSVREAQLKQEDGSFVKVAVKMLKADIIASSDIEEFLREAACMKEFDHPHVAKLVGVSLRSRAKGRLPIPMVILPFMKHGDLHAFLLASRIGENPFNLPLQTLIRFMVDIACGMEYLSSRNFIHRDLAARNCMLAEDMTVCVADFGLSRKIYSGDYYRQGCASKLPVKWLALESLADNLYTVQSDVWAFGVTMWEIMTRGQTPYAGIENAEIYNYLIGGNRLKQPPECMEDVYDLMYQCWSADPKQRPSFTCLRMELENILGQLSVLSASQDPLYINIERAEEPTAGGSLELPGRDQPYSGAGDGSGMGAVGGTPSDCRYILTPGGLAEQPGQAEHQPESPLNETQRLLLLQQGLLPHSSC

CK1δ (h) (human) = CK1δ (h) (human) (UniProt P48730)
JNK3 (h) (human) = JNK3 (h) (human) (UniProt P53779)
CaMKIδ (h) (human) = CaMKIδ (h) (human) (UniProt Q8IU85)
[2] = biological target: T3, Tec (h) activated (human) (UniProt P42680)
T3 sequence (looked up): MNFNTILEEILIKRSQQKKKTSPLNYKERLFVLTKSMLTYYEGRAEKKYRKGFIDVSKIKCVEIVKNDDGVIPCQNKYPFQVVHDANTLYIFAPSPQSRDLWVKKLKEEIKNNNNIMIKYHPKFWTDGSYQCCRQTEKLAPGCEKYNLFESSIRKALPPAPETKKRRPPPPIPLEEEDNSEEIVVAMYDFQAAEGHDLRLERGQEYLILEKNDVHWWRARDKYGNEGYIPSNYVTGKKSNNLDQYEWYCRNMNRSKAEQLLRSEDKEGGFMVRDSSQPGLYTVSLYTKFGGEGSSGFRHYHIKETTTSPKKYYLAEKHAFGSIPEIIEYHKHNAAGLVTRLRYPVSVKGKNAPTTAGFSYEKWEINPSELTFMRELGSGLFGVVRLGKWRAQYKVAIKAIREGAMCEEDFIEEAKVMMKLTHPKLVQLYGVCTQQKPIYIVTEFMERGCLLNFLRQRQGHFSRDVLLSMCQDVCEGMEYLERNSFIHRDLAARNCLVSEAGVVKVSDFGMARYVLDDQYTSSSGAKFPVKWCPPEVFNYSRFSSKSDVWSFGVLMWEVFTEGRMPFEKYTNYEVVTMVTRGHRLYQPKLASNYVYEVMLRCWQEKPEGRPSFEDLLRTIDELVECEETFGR

Sequence of ZAP-70 (h) (human) (P43403 whole entry): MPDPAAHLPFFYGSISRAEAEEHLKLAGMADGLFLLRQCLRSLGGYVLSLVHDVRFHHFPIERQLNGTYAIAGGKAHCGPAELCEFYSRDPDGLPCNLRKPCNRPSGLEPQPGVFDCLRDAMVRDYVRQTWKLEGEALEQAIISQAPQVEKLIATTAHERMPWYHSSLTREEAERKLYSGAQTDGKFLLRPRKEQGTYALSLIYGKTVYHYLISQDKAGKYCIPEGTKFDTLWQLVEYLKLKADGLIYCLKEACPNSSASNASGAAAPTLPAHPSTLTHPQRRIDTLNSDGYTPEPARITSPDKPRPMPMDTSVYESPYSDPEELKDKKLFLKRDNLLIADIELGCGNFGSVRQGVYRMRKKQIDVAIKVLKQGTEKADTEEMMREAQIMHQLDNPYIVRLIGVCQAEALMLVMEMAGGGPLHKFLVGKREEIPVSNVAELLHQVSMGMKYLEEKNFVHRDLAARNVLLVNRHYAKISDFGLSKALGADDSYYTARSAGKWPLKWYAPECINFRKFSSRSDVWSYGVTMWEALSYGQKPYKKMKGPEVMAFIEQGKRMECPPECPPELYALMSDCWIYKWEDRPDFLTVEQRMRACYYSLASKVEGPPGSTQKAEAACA
Sequence of VRK2 (h) (human) (Q86Y07 whole entry): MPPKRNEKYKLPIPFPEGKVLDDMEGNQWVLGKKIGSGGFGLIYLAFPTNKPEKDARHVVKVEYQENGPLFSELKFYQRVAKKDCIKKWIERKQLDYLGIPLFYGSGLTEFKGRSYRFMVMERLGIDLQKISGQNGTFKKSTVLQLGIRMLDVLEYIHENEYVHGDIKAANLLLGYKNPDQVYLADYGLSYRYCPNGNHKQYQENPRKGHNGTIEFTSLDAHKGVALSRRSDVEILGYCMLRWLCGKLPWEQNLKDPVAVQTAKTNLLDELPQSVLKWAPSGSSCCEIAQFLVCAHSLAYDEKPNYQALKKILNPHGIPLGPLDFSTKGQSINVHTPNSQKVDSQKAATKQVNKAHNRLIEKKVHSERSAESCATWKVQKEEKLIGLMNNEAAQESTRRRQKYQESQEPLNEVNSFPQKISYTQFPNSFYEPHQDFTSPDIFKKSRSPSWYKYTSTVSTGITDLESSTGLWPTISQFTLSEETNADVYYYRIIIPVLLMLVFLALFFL
Sequence of SGK (h) (human) (O00141 60-431 limits assumed): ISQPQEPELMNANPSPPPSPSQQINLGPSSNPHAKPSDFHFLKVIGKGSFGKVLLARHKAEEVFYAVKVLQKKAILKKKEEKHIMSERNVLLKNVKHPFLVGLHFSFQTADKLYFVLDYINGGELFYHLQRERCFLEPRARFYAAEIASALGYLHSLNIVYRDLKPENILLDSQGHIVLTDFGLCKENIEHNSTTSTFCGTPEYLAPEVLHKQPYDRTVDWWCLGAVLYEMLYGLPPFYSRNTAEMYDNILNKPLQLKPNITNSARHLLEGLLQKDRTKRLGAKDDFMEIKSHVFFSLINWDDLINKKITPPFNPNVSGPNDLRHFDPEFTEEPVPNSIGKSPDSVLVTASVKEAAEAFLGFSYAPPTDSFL
Sequence of Rsk2 (h) (human) (P51812 whole entry): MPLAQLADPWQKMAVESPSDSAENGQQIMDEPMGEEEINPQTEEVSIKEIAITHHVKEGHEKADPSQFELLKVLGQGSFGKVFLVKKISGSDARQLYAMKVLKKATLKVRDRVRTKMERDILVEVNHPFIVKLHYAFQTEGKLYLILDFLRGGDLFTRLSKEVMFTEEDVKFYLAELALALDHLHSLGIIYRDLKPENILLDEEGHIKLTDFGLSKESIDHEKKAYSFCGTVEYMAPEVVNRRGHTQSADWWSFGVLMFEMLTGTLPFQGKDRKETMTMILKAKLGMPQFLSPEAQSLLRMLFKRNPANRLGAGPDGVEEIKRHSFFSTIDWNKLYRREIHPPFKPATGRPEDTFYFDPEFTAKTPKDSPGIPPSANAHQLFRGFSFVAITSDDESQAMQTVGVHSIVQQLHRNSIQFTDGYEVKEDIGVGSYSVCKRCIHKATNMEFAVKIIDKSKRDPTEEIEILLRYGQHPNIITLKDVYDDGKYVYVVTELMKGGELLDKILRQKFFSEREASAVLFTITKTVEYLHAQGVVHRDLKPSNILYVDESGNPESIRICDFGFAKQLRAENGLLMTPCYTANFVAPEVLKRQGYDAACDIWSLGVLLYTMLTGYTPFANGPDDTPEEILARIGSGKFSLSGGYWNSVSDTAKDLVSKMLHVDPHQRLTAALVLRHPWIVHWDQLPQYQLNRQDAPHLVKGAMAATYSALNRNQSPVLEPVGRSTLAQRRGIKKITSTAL

% activity at 100 µM (Fyn (h) (human)): 74%
% activity at 100 µM (AMPKα2 (h) (human)): 54%
% activity at 100 µM (VRK2 (h) (human)): 161%
% activity at 100 µM (SGK (h) (human)): 48%
% activity at 100 µM (ZAP-70 (h) (human)): 75%
% activity at 100 µM (EGFR (h) (human)): 21%
% activity at 100 µM (Rsk2 (h) (human)): 51%
% activity at 100 µM (Fer (h) (human)): 130%
% activity at 100 µM (PKCζ (h) (human)): 81%
% activity at 100 µM [1]: 85%
% activity at 100 µM (FGFR1 (h) (human)): 55%
% activity at 100 µM (EphA4 (h) (human)): 88%
% activity at 100 µM (IR (h) (human)): 96%
% activity at 100 µM (Rse (h) (human)): 88%
% activity at 100 µM (CK1δ (h) (human)): 92%
% activity at 100 µM (JNK3 (h) (human)): 89%
% activity at 100 µM (CaMKIδ (h) (human)): 10%
% activity at 100 µM [2]: 56%
Substance: MMI-0300 (peptide)
